Experiment [1] deals with pSer7 CTD peptide (RNA polymerase II CTD, about two heptads, phosphorylated at Ser7). In words: fluorescence polarisation. Background: Polarisation of emitted light reports the rotation of a fluorescent probe.
The target of experiment [2] is pSer2 CTD peptide (RNA polymerase II CTD, about two heptads, phosphorylated at Ser2). The experiment is described as follows: fluorescence polarisation.

B1: RPRD1B CID domain (residues 2-133), wild type (domain or fragment)
chain: SSFSESALEKKLSELSNSQQSVQTLSLWLIHHRKHAGPIVSVWHRELRKAKSNRKLTFLYLANDVIQNSKRKGPEFTREFESVLVDAFSHVAREADEGCKKPLERLLNIWQERSVYGGEFIQQLKLSMEDSK
As to B1, the Kd – broadly, a measure of binding affinity in units of concentration – was 32.5 µM in experiment [1] and 22.5 µM in experiment [2].

B2: RPRD1B CID domain (residues 2-133), Arg114A mutant (domain or fragment)
chain: SSFSESALEKKLSELSNSQQSVQTLSLWLIHHRKHAGPIVSVWHRELRKAKSNRKLTFLYLANDVIQNSKRKGPEFTREFESVLVDAFSHVAREADEGCKKPLERLLNIWQEASVYGGEFIQQLKLSMEDSK
In experiment [2], B2 displayed a Kd of 37.9 µM.

B3: RPRD1B CID domain (residues 2-133), Tyr61 to alanine (domain or fragment)
chain: SSFSESALEKKLSELSNSQQSVQTLSLWLIHHRKHAGPIVSVWHRELRKAKSNRKLTFLALANDVIQNSKRKGPEFTREFESVLVDAFSHVAREADEGCKKPLERLLNIWQERSVYGGEFIQQLKLSMEDSK
B3 displayed a Kd in experiment [2] of 37.8 µM.

The values are drawn from PMC11775580.
